± gives the standard deviation of the averaged measurements.
Assays:
[1] = system: VchCAST RNA-guided transposition machinery (E. coli BL21(DE3) host, lacZ target); experiment: relative integration efficiency (T-LR orientation) vs wild-type transposon end (log2 (normalized fold change)); transposon end mutated: left end; higher = more efficient transposition
Summary of the method: (§1)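 Relative integration efficiency is a fold change of output over input barcode abundance, normalised to reference barcodes and log-transformed. Input plasmids and genomic integration junctions were PCR-amplified and Illumina-sequenced from E. coli BL21(DE3) co-transformed with a T7-driven effector plasmid and pUC57 donor pools of 1549 left-end or 1849 right-end transposon variants. Plating was done with 0.1 mM IPTG at 37°C for 18 h, with two biological output replicates and four reference barcodes.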

[2] = system: VchCAST RNA-guided transposition machinery (E. coli BL21(DE3) host, lacZ target); experiment: relative integration efficiency (T-RL orientation) vs wild-type transposon end (log2 (normalized fold change)); transposon end mutated: left end; higher = more efficient transposition
Summary of the method: as §1

| Sequence | relative integration efficiency (log2) [1] | relative integration efficiency (log2) [2] |
| --- | --- | --- |
| AATGTTGTTGATGCAACCATAAAGTGATATTTAACTCTCTTCTTTAGCAGTCTAGTCTATTGAAACTCAACCATATATTGATATCTCACAAAACAACCATAAGTTGATATTTTTGTGAATCGAGTATTTCAGCAAAACTACTGCAGTAAGAA | -5.31 ± 0.24 | -3.73 ± 1.2 |
| AATGTTGTTGATGCAACCATAAAATGATAATTAATAATTATTTATAATCAGCAACTTAACCACAAAACAACCATAAGTTGATATTTTACAAAAGTTGGTATTCAACTATAAAATGTGAATCGAGTATTTCAGCAAAACTACTGCAGTAAGAA | -1.49 ± 1.9 | -2.24 ± 0.86 |
| AATGTTGTTGATGCAACCATAAAGTGATATTTAATAATTATTTATAATCAGCAACTTAACCACAAAACAACCATAGCGGTCGCGAGACACCCCACCAACGCCTGGTCGCGGGGGTGTCCGATCTGATTTCAGCAAAACTACTGCAGTAAGAA | -4.33 ± 1.8 | -6.21 ± 1.6 |
| AATGTTGTTGATGCACCCATAAATTGATAATTAATAATTATTTATAATCAGCAACTTAACCACAAAACAACCATAAAGTGATATTTAACAAAAGTTGGTATTCAACTATAAAATGTGAATCGAGTATTTCAGCAAAACTACTGCAGTAAGAA | -1.55 ± 1.7 | -2.92 ± 1.1 |
| AATGTTGTTGATGCAACCATAAAGTGATATTTATAATTATTTATAATCAGCAACTTAACCACAAAACAACCATATATTGATATCTCACAAAACAACCATAAGTTGATATTTTTGTGAATCGAGTATTTCAGCAAAACTACTGCAGTAAGAAA | -0.645 ± 0.95 | -0.877 ± 0.61 |
| AATGTTGTTGATGCAACCATAAAGTGATATTTAATAATTATTGCGCCGACTACCAGGCCAACACCCCACCAACGCGCGGTCGCGAGACACCCCACCAACGCCTGGTCGCGGGGGTGTCCGATCTGATTTCAGCAAAACTACTGCAGTAAGAA | -5.68 ± 3.3 | -6.73 ± 0.58 |
| AATGTTGTTGATGCAACCATAAAGTGATATTTACCGACTGTCTGCCATCCGCCGCTGCACCGCAGCCCAACCATATATTGATATCTCACAAAACAACCATAAGTTGATATTTTTGTGAATCGAGTATTTCAGCAAAACTACTGCAGTAAGAA | -2.44 ± 0.78 | -3.24 ± 1 |
| AATGTTGTTGATGCAACCATATATTGATATCTCATAATTATTTATAATCAGCAACTTAACCACAAAACAACCATAAGTTGATATTTTACAAAAGTTGGTATTCAACTATAAAATGTGAATCGAGTATTTCAGCAAAACTACTGCAGTAAGAA | -1.84 ± 0.76 | -3.58 ± 1.4 |
| AATGTTGTTGATGCAACCATAAAGTGATATTTAATAATTACAACCATATATTGATATCTCTTTATAATCAGCAACTTAACCACAAAAACAAAACAACCATAAGTTGATATTTTTGTGAATCGAGTATTTCAGCAAAACTACTGCAGTAAGAA | -2.04 ± 1.6 | -4.31 ± 0.99 |
| AATGTTGTTGATGCAACCATAAAGTGATATTTAATAACAACCATATATTGATATCTCTTATTTATAATCAGCAACTTAACCACAAAAACAAAACAACCATAAGTTGATATTTTTGTGAATCGAGTATTTCAGCAAAACTACTGCAGTAAGAA | -2.07 ± 1.8 | -3.58 ± 1 |
| AATGTTGTTGATGTGCAACCATAAAGTGATATTTAATAATTATTTATAATCAGCAACTTAACCACAAAACAACCATATATTGATATCTCACAAAACAACCATAAGTTGATATTTTTGTGAATCGAGTATTTCAGCAAAACTACTGCAGTAAG | < -10 | -6.45 ± 0.8 |
| AATGTTGTTGATGCAACCATAAAGTGATATTTACAACCATATATTGATATCTCACAAACAACCATAAGTTGATATTTTTGTGAATCGAGTATTTCAGCAAAACTACTGCAGTAAGAAAGTTACTTCGTGGTATGGGAGGATCAAGGAGCCAA | 2.04 ± 0.88 | -2 ± 0.74 |
| TTTTGTGTTGAAACAACCATAAAGTGATAACAACGAATCAATTAAAATCATAGGCTTAATCGAAAAACAACCATATCTTGATATCGCATAAAACAACCATAAGTTGATATTTTTGTGAATAGGATATTCCAACCTTCATAGTTTAGTAAGAA | -0.791 ± 0.29 | 0.192 ± 0.22 |
| AATGTTGTTGATGCAACCATAAAGTGATATTTAATAATTATTTATAATCAGCAACTTAACCACAAACAACCATATATTGATATCTCACAAAACAACCATAAGTTGATATTTTATGTGAATCGAGTATTTCAGCAAAACTACTGCAGTAAGAA | -1.02 ± 0.3 | -0.754 ± 0.26 |
| AATGTTGTTGATGCAACCATAAAGTGATATTTAATAATTATTTATAATCAGCAACTTAACCACAAAACAACCATATATTGATATCTCACAAAACAACCATAAGTTGATATTGGGTGTCCGATCTGATTTCAGCAAAACTACTGCAGTAAGAA | -0.651 ± 0.46 | -0.13 ± 0.053 |
| AATGTTGTTGATGCAACCATAAAGTGATATTTATTGTGAGCGGATAACAATTGTGAGCGGATAACAACAACCATATATTGATATCTCACAAAACAACCATAAGTTGATATTTTTGTGAATCGAGTATTTCAGCAAAACTACTGCAGTAAGAA | -6.162 ± 0.037 | -6.71 ± 0.35 |

| Sequence | relative integration efficiency (log2) [1] | relative integration efficiency (log2) [2] |
| --- | --- | --- |
| AATGTTGTTGATGCAACCATAAAGTGATATTTAATAACTTCGTATAAGGTATACTATACGAAGTTATCAACCATATATTGATATCTCACAAAACAACCATAAGTTGATATTTTTGTGAATCGAGTATTTCAGCAAAACTACTGCAGTAAGAA | -3.52 ± 1.1 | -3.34 ± 1.1 |
| AATGTTGTTGATGCAACCATATATTGATATCTCATAATTATTTATAATCAGCAACTTAACCACAAAACACCCATAAATTGATATTGCACAAAAGTTGGTATTCAACTATAAAATGTGAATCGAGTATTTCAGCAAAACTACTGCAGTAAGAA | -2.2 ± 1.6 | -4.07 ± 1.2 |
| AATGTTGTTGATGCAACCATAAAGTGATATTTAATAATCAACCATATATTGATATCTCTATTTATAATCAGCAACTTAACCACAAAAACAAAACAACCATAAGTTGATATTTTTGTGAATCGAGTATTTCAGCAAAACTACTGCAGTAAGAA | -0.761 ± 1 | -2.9 ± 1.1 |
| AATGTTGTTGATGCAACCATAAAGTGATATTTAATAATTATTTATAATCAGCAACTTAACCACAAAACAACCATATATTGATATCTCACAACCATAAGTTGATATTTTTGTGAATCGAGTATTTCAGCAAAACTACTGCAGTAAGAAAGTTA | -1.81 ± 1.5 | -3.63 ± 0.88 |
| TTTTGTGTTGAAACAACCATAAAGTGATATTTACGAATCAATTAAAATCATAGGCTTAATCGAAAAACAACCATATCTTGATATCGCATAAAACAACCATAAGTTGATATTTTGGTGAAAAGGATATTCCAACCTTCATAGTTTAGTAAGAA | -0.00585 ± 0.47 | 0.179 ± 0.12 |
| AATGTTGTTGATGCAACCATAAAGTGATATTTAATAATTATTTATAATCAGCAACTTAACCACAAAACAACCCGCGCGGTCGCGAGACACCCCACCAACGCCTGGTCGCGGGGGTGTCCGATCTGATTTCAGCAAAACTACTGCAGTAAGAA | -4.43 ± 0.75 | -7.91 ± 1.9 |
| AATGTTGTTGATGCAACCATAAAATGATAATTAATAATTATTTATAATCAGCAACTTAACCACAAAACAACCATATATTGATATCTCACAAAAGTTGGTATTCAACTATAAAATGTGAATCGAGTATTTCAGCAAAACTACTGCAGTAAGAA | -0.862 ± 0.91 | -2.59 ± 1.1 |
| TTTTGTGTTGAAACAACCATAAAGTGATAACAAATAATTATTTATAATCAGCAACTTAACCACAAAACAACCATATCTTGATATCGCATAAAACAACCATAAGTTGATATTTTGGTGAAAAGGATATTCCAACCTTCATAGTTTAGTAAGAA | -1.23 ± 0.8 | -0.416 ± 0.29 |
| AATGTTGTTGATGCAACCATAAAGTGATATTTAATAATTGGCAGTGAGCGCAACGCAATTCACAAAACAACCATATATTGATATCTCACAAAACAACCATAAGTTGATATTTTTGTGAATCGAGTATTTCAGCAAAACTACTGCAGTAAGAA | -3.88 ± 2.9 | -2.76 ± 1 |
| AATGTTGTTGATGCAACCATAAAGTGATATTTAATAATTATTTACAACCATATATTGATATCTCTAATCAGCAACTTAACCACAAAAACAAAACAACCATAAGTTGATATTTTTGTGAATCGAGTATTTCAGCAAAACTACTGCAGTAAGAA | -2.24 ± 2.1 | -4.75 ± 1.3 |
| AATGTTGTTGATGCAACCATAAAGTGATATTTAATCAACCATATATTGATATCTCACAAAACAACCATAAGTTGATATTTTTGTGAATCGAGTATTTCAGCAAAACTACTGCAGTAAGAAAGTTACTTCGTGGTATGGGAGGATCAAGGAGC | -0.405 ± 1 | -3.38 ± 1.4 |
| AATGTTGTTGATGCAACCATAAGTTGATATTTTATAATTATTTATAATCAGCAACTTAACCACAAAACAACCATAAAGTGATATTTAACAAAAGTTGGTATTCAACTATAAAATGTGAATCGAGTATTTCAGCAAAACTACTGCAGTAAGAA | -1.03 ± 1.1 | -2.4 ± 0.96 |
| AATGTTGTTGATGCAACCATAAAGTGATATTTAATAATTATTTATAATCAGCAACTTAACCACAAAACAACCATATATTGATATCTCACAAAACAAAACGCCTGGTCGCGGGGGTGTCCGATCTGATTTCAGCAAAACTACTGCAGTAAGAA | -0.638 ± 1.1 | -2.27 ± 1 |
| AATGTTGTTGATGCAACCATAAAGTGATATTTAATAATCAACCATATATTGATATCTCACAAAACAACCATAAGTTGATATTTTTGTGAATCGAGTATTTCAGCAAAACTACTGCAGTAAGAAAGTTACTTCGTGGTATGGGAGGATCAAGG | < -10 | -7.79 ± 2.1 |
| AATGTTGTTGATGCAACCATAAAGTGATATTTAATAATTATTTACAACCATATATTGATATCTCACAAAACAACCATAAGTTGATATTTTTGTGAATCGAGTATTTCAGCAAAACTACTGCAGTAAGAAAGTTACTTCGTGGTATGGGAGGA | -1.76 ± 1 | -5.81 ± 1.1 |
